Data published in the RNAGym collection of RNA variant scans (doi:10.1021/acssynbio.7b00057).

B1: Pistol ribozyme (parent)
chain: GGGUCGUUGUUCCAUAAUCGCGUGGAUAUGGCACGCAAGUUUCUACCGGGCACCGUAAAUGUCCGACUGGAGCCGUUCGGGCGGCUAUAAACAGACCUCAGGCCCGAAGCGUGGCGGCACCUGCCGCCGGUGGUAAAAAAGAUCGGAAGAGCACACGUCU

Variants of: B1
Assay: aptazyme ON/OFF ratio, guanine; higher = stronger switching; co-transcriptional cleavage with and without guanine

Row | Variant | aptazyme ON/OFF ratio
1 | GGGUCGACUAGCCAUAAUCGCGUGGAUAUGGCACGCAAGUUUCUACCGGGCACCGUAAAUGUCCGACUGGAGCCGUUCGGGCGGCUAUAAACAGACCUCAGGCCCGAAGCGUGGCGGCACCUGCCGCCGGUGGUAAAAAAGAUCGGAAGAGCACACGUCU | 1.31
2 | GGGUCGACUACCCAUAAUCGCGUGGAUAUGGCACGCAAGUUUCUACCGGGCACCGUAAAUGUCCGACUGGAGCCGUUCGGGCGGCUAUAAACAGACCUCAGGCCCGAAGCGUGGCGGCACCUGCCGCCGGUGGUAAAAAAGAUCGGAAGAGCACACGUCU | 1.01
3 | GGGUCGACUACUUAUAAUCGCGUGGAUAUGGCACGCAAGUUUCUACCGGGCACCGUAAAUGUCCGACUGGAGCCGUUCGGGCGGCUAUAAACAGACCUCAGGCCCGAAGCGUGGCGGCACCUGCCGCCGGUGGUAAAAAAGAUCGGAAGAGCACACGUCU | 1.18
4 | GGGUCGACUACUAAUAAUCGCGUGGAUAUGGCACGCAAGUUUCUACCGGGCACCGUAAAUGUCCGACUGGAGCCGUUCGGGCGGCUAUAAACAGACCUCAGGCCCGAAGCGUGGCGGCACCUGCCGCCGGUGGUAAAAAAGAUCGGAAGAGCACACGUCU | 1.1
5 | GGGUCGACUACUGAUAAUCGCGUGGAUAUGGCACGCAAGUUUCUACCGGGCACCGUAAAUGUCCGACUGGAGCCGUUCGGGCGGCUAUAAACAGACCUCAGGCCCGAAGCGUGGCGGCACCUGCCGCCGGUGGUAAAAAAGAUCGGAAGAGCACACGUCU | 1.12
6 | GGGUCGACUAGACAUAAUCGCGUGGAUAUGGCACGCAAGUUUCUACCGGGCACCGUAAAUGUCCGACUGGAGCCGUUCGGGCGGCUAUAAACAGACCUCAGGCCCGAAGCGUGGCGGCACCUGCCGCCGGUGGUAAAAAAGAUCGGAAGAGCACACGUCU | 1.07
7 | GGGUCGACUACAAAUAAUCGCGUGGAUAUGGCACGCAAGUUUCUACCGGGCACCGUAAAUGUCCGACUGGAGCCGUUCGGGCGGCUAUAAACAGACCUCAGGCCCGAAGCGUGGCGGCACCUGCCGCCGGUGGUAAAAAAGAUCGGAAGAGCACACGUCU | 1.17
8 | GGGUCGACUACAUAUAAUCGCGUGGAUAUGGCACGCAAGUUUCUACCGGGCACCGUAAAUGUCCGACUGGAGCCGUUCGGGCGGCUAUAAACAGACCUCAGGCCCGAAGCGUGGCGGCACCUGCCGCCGGUGGUAAAAAAGAUCGGAAGAGCACACGUCU | 1.23
9 | GGGUCGACUACAGAUAAUCGCGUGGAUAUGGCACGCAAGUUUCUACCGGGCACCGUAAAUGUCCGACUGGAGCCGUUCGGGCGGCUAUAAACAGACCUCAGGCCCGAAGCGUGGCGGCACCUGCCGCCGGUGGUAAAAAAGAUCGGAAGAGCACACGUCU | 1.14
10 | GGGUCGACUAAAUAUAAUCGCGUGGAUAUGGCACGCAAGUUUCUACCGGGCACCGUAAAUGUCCGACUGGAGCCGUUCGGGCGGCUAUAAACAGACCUCAGGCCCGAAGCGUGGCGGCACCUGCCGCCGGUGGUAAAAAAGAUCGGAAGAGCACACGUCU | 1.22
11 | GGGUCGACUAAAGAUAAUCGCGUGGAUAUGGCACGCAAGUUUCUACCGGGCACCGUAAAUGUCCGACUGGAGCCGUUCGGGCGGCUAUAAACAGACCUCAGGCCCGAAGCGUGGCGGCACCUGCCGCCGGUGGUAAAAAAGAUCGGAAGAGCACACGUCU | 1.22
12 | GGGUCGACUAAAAAUAAUCGCGUGGAUAUGGCACGCAAGUUUCUACCGGGCACCGUAAAUGUCCGACUGGAGCCGUUCGGGCGGCUAUAAACAGACCUCAGGCCCGAAGCGUGGCGGCACCUGCCGCCGGUGGUAAAAAAGAUCGGAAGAGCACACGUCU | 1.17
13 | GGGUCGACUAAACAUAAUCGCGUGGAUAUGGCACGCAAGUUUCUACCGGGCACCGUAAAUGUCCGACUGGAGCCGUUCGGGCGGCUAUAAACAGACCUCAGGCCCGAAGCGUGGCGGCACCUGCCGCCGGUGGUAAAAAAGAUCGGAAGAGCACACGUCU | 1.28
14 | GGGUCGACUAAGCAUAAUCGCGUGGAUAUGGCACGCAAGUUUCUACCGGGCACCGUAAAUGUCCGACUGGAGCCGUUCGGGCGGCUAUAAACAGACCUCAGGCCCGAAGCGUGGCGGCACCUGCCGCCGGUGGUAAAAAAGAUCGGAAGAGCACACGUCU | 1.27
15 | GGGUCGACUAAUCAUAAUCGCGUGGAUAUGGCACGCAAGUUUCUACCGGGCACCGUAAAUGUCCGACUGGAGCCGUUCGGGCGGCUAUAAACAGACCUCAGGCCCGAAGCGUGGCGGCACCUGCCGCCGGUGGUAAAAAAGAUCGGAAGAGCACACGUCU | 1.12
16 | GGGUCGACUACCAAUAAUCGCGUGGAUAUGGCACGCAAGUUUCUACCGGGCACCGUAAAUGUCCGACUGGAGCCGUUCGGGCGGCUAUAAACAGACCUCAGGCCCGAAGCGUGGCGGCACCUGCCGCCGGUGGUAAAAAAGAUCGGAAGAGCACACGUCU | 1.08
17 | GGGUCGACUACCGAUAAUCGCGUGGAUAUGGCACGCAAGUUUCUACCGGGCACCGUAAAUGUCCGACUGGAGCCGUUCGGGCGGCUAUAAACAGACCUCAGGCCCGAAGCGUGGCGGCACCUGCCGCCGGUGGUAAAAAAGAUCGGAAGAGCACACGUCU | 1.1
18 | GGGUCGACUACCUAUAAUCGCGUGGAUAUGGCACGCAAGUUUCUACCGGGCACCGUAAAUGUCCGACUGGAGCCGUUCGGGCGGCUAUAAACAGACCUCAGGCCCGAAGCGUGGCGGCACCUGCCGCCGGUGGUAAAAAAGAUCGGAAGAGCACACGUCU | 1.06
